Consider 3 substances from paper PMC7472415 (Viruses, 2020).

human importin-α3 without its importin-β binding (IBB) domain (residues 64 to 521), sequence (O00629 64-521): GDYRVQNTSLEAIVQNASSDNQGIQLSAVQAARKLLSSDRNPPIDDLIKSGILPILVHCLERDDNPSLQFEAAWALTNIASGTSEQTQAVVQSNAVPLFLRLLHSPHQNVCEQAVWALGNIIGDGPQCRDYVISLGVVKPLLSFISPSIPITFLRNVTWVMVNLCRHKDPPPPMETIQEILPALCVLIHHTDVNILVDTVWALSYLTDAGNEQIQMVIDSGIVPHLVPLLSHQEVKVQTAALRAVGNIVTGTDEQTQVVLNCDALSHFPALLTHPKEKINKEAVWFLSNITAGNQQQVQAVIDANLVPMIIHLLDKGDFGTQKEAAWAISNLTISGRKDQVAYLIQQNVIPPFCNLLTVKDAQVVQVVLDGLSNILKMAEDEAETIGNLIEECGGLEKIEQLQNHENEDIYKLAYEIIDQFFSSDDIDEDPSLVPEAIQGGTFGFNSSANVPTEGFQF
human importin-α5 without its importin-β binding (IBB) domain (residues 66 to 538), sequence (P52294 66-538): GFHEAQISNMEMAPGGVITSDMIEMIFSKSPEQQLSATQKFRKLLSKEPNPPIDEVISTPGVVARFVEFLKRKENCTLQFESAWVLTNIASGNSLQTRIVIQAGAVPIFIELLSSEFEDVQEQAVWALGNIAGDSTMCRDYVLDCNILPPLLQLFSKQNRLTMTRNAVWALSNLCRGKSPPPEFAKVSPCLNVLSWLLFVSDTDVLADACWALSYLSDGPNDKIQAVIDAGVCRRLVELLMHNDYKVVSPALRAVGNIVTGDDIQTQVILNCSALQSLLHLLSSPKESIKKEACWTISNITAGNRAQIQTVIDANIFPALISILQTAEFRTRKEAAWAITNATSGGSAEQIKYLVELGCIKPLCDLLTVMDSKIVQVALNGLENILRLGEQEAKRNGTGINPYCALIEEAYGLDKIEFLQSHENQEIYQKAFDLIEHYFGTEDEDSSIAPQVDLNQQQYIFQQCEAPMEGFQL
human importin-α7 without its importin-β binding (IBB) domain (residues 58 to 536), sequence (O60684 58-536): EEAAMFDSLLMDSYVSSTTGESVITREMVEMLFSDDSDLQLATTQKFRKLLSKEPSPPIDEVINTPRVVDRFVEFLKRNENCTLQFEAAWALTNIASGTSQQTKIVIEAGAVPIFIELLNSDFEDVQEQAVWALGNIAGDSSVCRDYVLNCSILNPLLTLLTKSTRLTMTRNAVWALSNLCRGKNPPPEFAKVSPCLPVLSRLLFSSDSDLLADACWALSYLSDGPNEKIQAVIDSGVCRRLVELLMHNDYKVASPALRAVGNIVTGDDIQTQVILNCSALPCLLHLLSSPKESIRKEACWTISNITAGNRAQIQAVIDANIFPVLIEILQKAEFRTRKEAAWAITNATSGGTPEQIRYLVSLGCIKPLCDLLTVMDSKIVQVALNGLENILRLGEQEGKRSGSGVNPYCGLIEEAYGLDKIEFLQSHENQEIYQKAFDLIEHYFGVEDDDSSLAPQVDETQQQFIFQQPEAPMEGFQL

This test has as its target B/NP_TAIL mut1-YFP, B/NP_TAIL-YFP with point mutations in the positive charge patch of the NLS (influenza B virus B/Memphis/13/03). The test can be described thus: SPR. On the technique in general: Surface plasmon resonance follows binding to a sensor surface in real time, without labels.
A word on the Kd: it is a measure of binding affinity in units of concentration. In turn, “human importin-α5 without its importin-β binding (IBB) domain (residues 66 to 538) (from UniProt P52294 66-538) (domain or fragment)” had a Kd of more than 5 µM.
With “human importin-α3 without its importin-β binding (IBB) domain (residues 64 to 521) (from UniProt O00629 64-521) (domain or fragment)”, the Kd was more than 5 µM.
“human importin-α7 without its importin-β binding (IBB) domain (residues 58 to 536) (from UniProt O60684 58-536) (domain or fragment)” displayed a Kd of more than 5 µM.
